Assay results from patent publication US7091311 (GlaxoSmithKline, dated 2006).
Bridges are numbered along the chain shown (N, C = ends). Where no end group is shown, it is not given here. The star is where a group is joined. Biotin = O=C1N[C@H]2[C@H](CS[C@H]2CCCCC(=O)*)N1

T1: full length human TPO-R (human, UniProt P40238 26-635)
T1 sequence (looked up): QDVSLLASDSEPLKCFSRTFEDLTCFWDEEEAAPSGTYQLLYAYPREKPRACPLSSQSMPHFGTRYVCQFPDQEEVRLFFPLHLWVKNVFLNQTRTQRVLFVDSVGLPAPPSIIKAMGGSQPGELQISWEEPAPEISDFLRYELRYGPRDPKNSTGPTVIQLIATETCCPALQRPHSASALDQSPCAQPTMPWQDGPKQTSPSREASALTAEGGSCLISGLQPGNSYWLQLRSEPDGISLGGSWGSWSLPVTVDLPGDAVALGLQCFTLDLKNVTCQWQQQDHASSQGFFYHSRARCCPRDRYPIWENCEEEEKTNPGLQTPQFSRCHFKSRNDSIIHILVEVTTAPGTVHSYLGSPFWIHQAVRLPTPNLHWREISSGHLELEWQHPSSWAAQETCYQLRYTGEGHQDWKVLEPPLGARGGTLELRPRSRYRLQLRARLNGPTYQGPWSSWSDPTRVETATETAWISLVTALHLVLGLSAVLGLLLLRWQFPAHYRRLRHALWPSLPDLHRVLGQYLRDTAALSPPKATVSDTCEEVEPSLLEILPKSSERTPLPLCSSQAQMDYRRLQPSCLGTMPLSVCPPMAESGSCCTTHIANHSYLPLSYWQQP


biological target: T1, full length human TPO-R; test: cell-based or functional assay

EC50 microphysiometer | EC50 cell proliferation | Binder
≤ 200000 nM | – | CPTLREWISFC (disulfide 1-11 (inferred); not fully specified) [SEQ ID NO:12 cyclized, ADG - deletion]
≤ 500 nM | ≤ 500 nM | CADGPTLREWIAFC (also: cyclized, mode not given here) [SEQ ID NO:12 cyclized, S - A]
≤ 200000 nM | ≤ 500 nM | CADGPTLRQWISFC (also: cyclized, mode not given here) [SEQ ID NO:12 cyclized, E - Q]
≤ 200000 nM | ≤ 200000 nM | CAAGPTLREWISFC (also: cyclized, mode not given here) [SEQ ID NO:12 cyclized, D - A]

biological target: T1, full length human TPO-R; test: cell-based or functional assay; remark: another data set of the same source

EC50 cell proliferation | EC50 microphysiometer | Binder
≤ 500 nM | ≤ 200000 nM | ADGPTLREWISFC-OH (also: further groups not given here) [SEQ ID NO:173 compound, free acid form]

biological target: T1, full length human TPO-R; test: cell-based or functional assay; remark: another data set of the same source

EC50 cell proliferation | EC50 microphysiometer | Binder
≤ 500 nM | ≤ 500 nM | CIEGPTLRQWLAARA (also: further groups not given here, also called [drawing CHEM-US-00062]) [[drawing CHEM-US-00030] (SEQ ID NO:185)(SEQ ID NO:185)]
≤ 500 nM | ≤ 500 nM | SVQCGPTLRQWLAARNHLS (also: further groups not given here, structure printed only as a drawing) [[drawing CHEM-US-00032] (SEQ ID NO:187)(SEQ ID NO:187)]
≤ 500 nM | ≤ 500 nM | DGPTLREWISFC (also: further groups not given here, structure printed only as a drawing) [[drawing CHEM-US-00037] (SEQ ID NO:189)(SEQ ID NO:189)]
≤ 500 nM | ≤ 500 nM | CADGPTLREWISF (also: further groups not given here, structure printed only as a drawing) [[drawing CHEM-US-00031] (SEQ ID NO:186)(SEQ ID NO:186)]
≤ 200000 nM | – | MVGPTLRSGC (also: further groups not given here, structure printed only as a drawing) [[drawing CHEM-US-00033] (SEQ ID NO:188)(SEQ ID NO:188)]

biological target: T1, full length human TPO-R; test: cell-based or functional assay; remark: another data set of the same source

EC50 cell proliferation | EC50 microphysiometer | Binder
≤ 500 nM | ≤ 500 nM | CIEGPTLRQWLAARA (also: further groups not given here, also called [drawing CHEM-US-00062]) [[drawing CHEM-US-00030] (SEQ ID NO:185)(SEQ ID NO:185)]
≤ 500 nM | – | H-IEGPTLRQWLAARA-NH2 [[H]-IEGPTLRQWLAARA-[NH2]]
≤ 500 nM | – | CIEGPTLRQWLAARAC (cysteine pairing not given here; also: further groups not given here, structure printed only as a drawing) [[drawing CHEM-US-00060] (SEQ ID NO:194)]

biological target: T2, soluble TPO-R (UniProt P40238 26-491); test: competition ELISA vs MBP-TPO156
Procedure: (§1) The amount of alkaline phosphatase in each well was then determined using standard methods.
(§2) In this example cyclized compounds were subjected to three assays. First, $IC50$ valves were obtained as described above.

IC50 | Binder
≤ 200000 nM | CPTLREWISFC (disulfide 1-11 (inferred); not fully specified) [SEQ ID NO:12 cyclized, ADG - deletion]
≤ 500 nM | CADGPTLRQWISFC (also: cyclized, mode not given here) [SEQ ID NO:12 cyclized, E - Q]
≤ 500 nM | CAAGPTLREWISFC (also: cyclized, mode not given here) [SEQ ID NO:12 cyclized, D - A]

biological target: T3, soluble TPO-R (UniProt P40238 26-491); test: competition ELISA vs MBP-TPO156
T3 construct: extracellular domain; Immobilized through anti-HPAP antibody Ab179; also called thrombopoietin receptor; c-mpl
Procedure: as §1, §2

IC50 | Binder
≤ 500 nM | CADGPTLREWIAFC (also: cyclized, mode not given here) [SEQ ID NO:12 cyclized, S - A]

biological target: T2, soluble TPO-R; test: competition ELISA vs MBP-TPO156; remark: another data set of the same source

IC50 | Binder
≤ 500 nM | CIEGPTLRQWLAARA (also: further groups not given here, also called [drawing CHEM-US-00062]) [[drawing CHEM-US-00030] (SEQ ID NO:185)(SEQ ID NO:185)]
≤ 500 nM | SVQCGPTLRQWLAARNHLS (also: further groups not given here, structure printed only as a drawing) [[drawing CHEM-US-00032] (SEQ ID NO:187)(SEQ ID NO:187)]
≤ 500 nM | DGPTLREWISFC (also: further groups not given here, structure printed only as a drawing) [[drawing CHEM-US-00037] (SEQ ID NO:189)(SEQ ID NO:189)]
≤ 500 nM | CADGPTLREWISF (also: further groups not given here, structure printed only as a drawing) [[drawing CHEM-US-00031] (SEQ ID NO:186)(SEQ ID NO:186)]
~200000 nM | MVGPTLRSGC (also: further groups not given here, structure printed only as a drawing) [[drawing CHEM-US-00033] (SEQ ID NO:188)(SEQ ID NO:188)]

biological target: T2, soluble TPO-R; test: competition ELISA vs MBP-TPO156; remark: another data set of the same source
Procedure: as §1

IC50 | Binder
≤ 500 nM | CIEGPTLRQWLAARA (also: further groups not given here, also called [drawing CHEM-US-00062]) [[drawing CHEM-US-00030] (SEQ ID NO:185)(SEQ ID NO:185)]
≤ 500 nM | H-IEGPTLRQWLAARA-NH2 [[H]-IEGPTLRQWLAARA-[NH2]]
≤ 500 nM | CIEGPTLRQWLAARAC (cysteine pairing not given here; also: further groups not given here, structure printed only as a drawing) [[drawing CHEM-US-00060] (SEQ ID NO:194)]

biological target: T2, soluble TPO-R; test: equilibrium binding ELISA, MBP-TPO or lacI-peptide tracer

IC50 | Binder
≤ 500 nM | SIEGPTLREWLTSRTPHS (free synthetic peptide) [S I E G P T L R E W L T S R T P H S]
≤ 500 nM | LAIEGPTLRQWLHGNGRDT (free synthetic peptide) [L A I E G P T L R Q W L H G N G R D T]
≤ 500 nM | GGCADGPTLREWISFCGGK(Biotin) (cysteine pairing not given here, also called AF 12285) [G G C A D G P T L R E W I S F C G G K (Biotin)]
≤ 500 nM | GGCADGPTLREWISFCGG (free synthetic peptide) [G G C A D G P T L R E W I S F C G G]
≤ 500 nM | TIKGPTLRQWLKSREHTS (free synthetic peptide) [T I K G P T L R Q W L K S R E H T S]
≤ 500 nM | GNADGPTLRQWLEGRRPKN (free synthetic peptide) [G N A D G P T L R Q W L E G R R P K N]
